Data: the RNAGym collection of RNA variant scans (doi:10.1073/pnas.2313332121)

B1: TPR t1 (parent)
chain: GACCAAUCUGCCCUCAGAGCUCGAGAACAUCUUCGGAUGCAGAGGAGGCAGGCUUCGGUGGCGCGAUAGCGCCAACGUCCUCAACCUCCAAUGCAUCCCACCACAUGAUGAUGCCUGAAGAGCCUUGGUUUUUUG

Variants of: B1
Assay: polymerase ribozyme fitness, log enrichment relative to wild type (log ratio); higher = more active; in vitro selection for triplet polymerase activity
Procedure, shortened: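 Frozen incubation at −7 °C formed the core of a single, triplicate in vitro selection round applied to PCR-built, transcribed mutant libraries of each subunit of a heterodimeric triplet polymerase ribozyme. Extended constructs were gel-excised, captured with streptavidin beads and amplified by RT-PCR, and input and output libraries were Illumina-sequenced with a filter of ≥10 input reads and ≥1 read per output. Fitness is the logarithm of genotype enrichment relative to wild-type enrichment, with inverse-variance-weighted replicate averaging, and the logarithm is base 2.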

Compared with GCCCCAUCUGCCCUCAGAGCUCGAGAACAUCUUCGGAUGCAGAGGAGGCAGGCUUCGGUGGCGCGAUAGCGCCAACGUCCUCAACCUCCAAUGCAUCCCACCACAUGAUGAUGGCUGAAGAGCAUUGGUUUUUUG [A2C A5C C114G C124A], GCCCUAUCUGCCCUCAGAGCUCGAGAACAUCUUCGGAUGCAGAGGAGGCAGUCUUCGGUGGAGCGAUAGCGCCAACGUCCUCAACCUCCAAUGCAUCCCACCACAUGAUGAUGCCUGAAGAGCCUUGGUUUUUUG [A2C A5U G52U C62A] is lower in “polymerase ribozyme fitness (log ratio)” value: -3.41 for the first, -4.11 for the second.

Compared with GCCCACUAUGCCCUCAGAGCUCGAGAACAUCUUCGGAUGCAGAGGAGGCAGGCUUCGGUGGCGCGAUAGCACCAACGUCCUCAUCCUCCAAUGCAUCCCACCACAUGAUGAUGCCUGAAGAGCCUUGGAUUUUUG [A2C A6C C8A G71A A84U U129A], GCCCAAUCUGCCCUCAGAGCUCGAGACCAUCUUCGGAUGCAGAGGAGGCAGGCUUCGGUGGCGCGAUAGCGCCAACGUCCUCAACCUCCAAUGCAUCCCACCACAUGAUGAUGCCUGAAGAGCCUUCGUUUUUUU [A2C A27C G127C G135U] is lower in “polymerase ribozyme fitness (log ratio)” value: -2.03 for the first, -6.34 for the second.

Compared with GCCCAAUCUGCCCUCAGAGCUCGAGAACAUCUUCGGAUGCUGAGGAGGCAGGCUUCGGUGGCGCGAUAGCGCCAACGGCCUCAACCUCCAAUGCAUCCCACCACAUGAUGAUGCCUGAAGAGCCUUGGUUUUUUG [A2C A41U U78G], GCCCAAUCUGCCCUCAGAGCUCGAGAACAUCUUCGGAUGCAGAGGCGGCAGGCUACGGUGGCGGGAUAGCGCCAACGUCCUCAUCCUCCAAUGCAUCCCACCACAUGAUGAUGCCUGAAGAGCCUUGGUUUUUUG [A2C A46C U55A C64G A84U] is lower in “polymerase ribozyme fitness (log ratio)” value: -3.61 for the first, -7.2 for the second.

First: GCCCAAUCUGCCCUCAGAGCUCGAGAACAUCUUCGGAUGCAGAGGAGGCAGGCUUCGGUGGCGCGUUAGCGCCAACGUCCUCAACCUCCAAUGCAUCCCACCACAUGAUGAUGCCUGAAGAGCCUUGGUUUUUUG [A2C A66U]
Second: GCCCAAUCUGCCCUCAGAGCUCGAGAACAUCUUCGGAUGCAGAGGAGGCAGGCUUCGGUGGCGCGAUAGCGCCAACGUCCUCAACCUCCAAUGCAUCCCACCACAUGAUGAUGCCUGAAGGGCCUUGGUUUUUUG [A2C A121G]
The “polymerase ribozyme fitness (log ratio)” value of the first is lower: -2.86 for the first, 0.405 for the second.

First: GCACAAUCAGCCCUCAGAGUUCGAGAACAUCUUCGGAUGCAGAGGAGGCAGGCUUCGGUGGCCCGAUAGCGCCAACGUCCUCAACCUCCAAUGCAUCCCACCACAUGAUGAUGCCUGAAUAGCCUUGGUUUUUUG [A2C C3A U9A C20U G63C G120U]
Second: GCACAAUCAGCCCUCAGAGUUCGAGAACAUCUUCGGAUGCAGAGGAGGCAGGCUUCGGUGGCGCGAUAGCGCCAACGUCCUCAACCUCCAAUGCAUCCCACCACAUGAUGAUGCCUGAAUAGCCUUGGUUUUUUG [A2C C3A U9A C20U G120U]
The “polymerase ribozyme fitness (log ratio)” value of the first is lower: -1.07 for the first, -0.418 for the second.

First: GCGCAAUCUGCCCUCAGAGCUCGAGAACAUCUUCGGAUGCAGAGGAGGCAGGCUUCGGUGGCGCGAUAGCGCCAACGUCCUCAACCUCCUAUGCAUCCCACCACAUGAUGAUGCUUGAAGAGCCUUGGUUUUUUG [A2C C3G A90U C115U]
Second: GCCUAAUCUGCCAUCAGAGCUCGAGAACAUCUUCGGAUGCAGAGGAGGAAGGCUUAGGUGGCGCGAUAGCACCAACGUCCUCAACCACCAAUGCAUCCCACCACAUGAUGAUGCCUGAAGAGCCUUGGUUUUUUG [A2C C4U C13A C49A C56A G71A U87A]
The “polymerase ribozyme fitness (log ratio)” value of the first is higher: -3.68 for the first, -6.32 for the second.

Going from GCCCAAUAUGCCCUCAGAGCUCGAGAACAUCUUCGGAUGCACAGGAGGCAGGCAUCGGUGGCGCGAUAGCGCCAACGACCUCAACCUCCAAUGCAUCUCACCACAUGAUGAUGCCUGAAAAGCCUUCGUUUUUUG [A2C C8A G42C U54A U78A C98U G120A G127C] to GCCCAAUAUGCCCUCAGAGCUCGAGAACAUCUUCGGAUGCAGAGGAGGCAGGCUUCGGUGGCGCGAUAGCGCCAACGUCCUCAACCUCCAAUGCAUCCCACCACAUGAUGAUGCCUGAAGAGCCUUGGUUAUUUG [A2C C8A U131A], the “polymerase ribozyme fitness (log ratio)” value rises from -2.04 to -1.54.

Going from GCCCAAUCUGACCUCAGAGCUCGAGAACAUCUUCGGAUGCAGAGGAGUCAGGCUUCGGUGGCGCGAUAGCGUCAACGUCUUCAACCUCCAAUGCAUCCCACCACAUGAUGAUGCCUGAAUAGCCUUGGUUUUUUG [A2C C11A G48U C72U C80U G120U] to GCCCAAUCUGUCCUCAGAGCUCGAGAACAUCUUCGGAUGCAGAGGAGGCAGGCUUCGGUGGCGCGAUAGGGCCAACGUCCUCAACCUCCAAUGCAUCCCACCACAUGAUGAUGCCUGAAAAGCCUUGGUUUUUUG [A2C C11U C70G G120A], the “polymerase ribozyme fitness (log ratio)” value rises from -3.83 to -3.19.

Going from GCCCAAUCUGCACUCAGAGCUCGAGAACAUCUUCGGAUGCAGAGGAGGCAGGCUUCGGUGGCGCGUUAGCGCCAACGUCCUCAACCUCCAAUGCAUCCCACCAUAUGAUGAUGCCUGAAGAGCCUUGGUUUUUUG [A2C C12A A66U C104U] to GCCCAAUCUGCGCUCAGAGCUCGAGAACAUCUUCGGAUGCAGAGGCGGCAGGCUUCGGUGGCGCGAUAGCGUCAACGUCCUCAACCUCCAAUGCAUCCCACCACAUGAUGAUUCCUGAAGAGCCUUGGUUUUUUG [A2C C12G A46C C72U G113U], the “polymerase ribozyme fitness (log ratio)” value falls from -3.52 to -7.24.

GCCCAAUCUGCGCUCAGAGCUCGAGAACAUCUUCGGAUGCAUAGGAGGAAGGCUUCGGUGGCGCGAUAGCGCAAACGUCCUUAACCUCCAAUGCAUCCCACCACAUGAUGCUGCCUGAAGAGCCUUGGUUUUUUG [A2C C12G G42U C49A C73A C82U A111C] and GCCCAAUCUGCGCUCAGAGCUCGAGAACAUCUUCGGAUGCAGAGGAGGCAGGCUUCGGUGGCGCGAUACCGCCAACGUCCUCAACCUCCAAUGCAUCCCACCACAUGAUUAUGCCUGAAGAGCCUUGCUUUUUUG [A2C C12G G69C G110U G128C] are within 0.2 log units of each other in “polymerase ribozyme fitness (log ratio)” value: -5.3 for the first, -5.29 for the second.

In the case of GCCCAAUCUGCCGUCAGAGCUCGAGAACAUCUUCGAAUGCAGAGGAGGCAGGCUUCGGUGGCACGAUAGCGCCAACGUCCUCAACCUCCAAUGCAUCCCACCACAUGAUGAUGCCUGAAGAGCCUUGGUUUUUUG [A2C C13G G36A G63A], the “polymerase ribozyme fitness (log ratio)” value is reported as -5.73.
